Measurements published in the DeepSol protein solubility set.

assay: soluble on expression in E. coli; label from the status in PepcDB or PDB records

Sequence	soluble on expression in E. coli
MSKSENLYSAARELIPGGVNSPVRAFTGVGGTPLFIEKADGAYLYDVDGKAYIDYVGSWGPMVLGHNHPAIRNAVIEAAERGLSFGAPTEMEVKMAQLVTELVPTMDMVRMVNSGTEATMSAIRLARGFTGRDKIIKFEGCYHGHADCLLVKAGSGALTLGQPNSPGVPADFAKYTLTCTYNDLASVRAAFEQYPQEIACIIVEPVAGNMNCVPPLPEFLPGLRALCDEFGALLIIDEVMTGFRVALAGAQDYYGVVPDLTCLGKIIGGGMPVGAFGGRRDVMDALAPTGPVYQAGTLSGNPIAMAAGFACLNEVAQPGVHETLDELTTRLAEGLLEAAEEAGIPLVVNHVGGMFGIFFTDAESVTCYQDVMACDVERFKRFFHMMLDEGVYLAPSAFEAGFMSVAHSMEDINNTIDAARRVFAKL	soluble
MSKVPVVGIVAALLPEMGIGFQGNLPWRLAKEMKYFREVTTLTNDNSKQNVVIMGRKTWESIPQKFRPLPKRINVVVSRSFDGELRKVEDGIYHSNSLRNCLTALQSSLANENKIERIYIIGGGEIYRQSMDLADHWLITKIMPLPETTIPQMDTFLQKQELEQRFYDNSDKLVDFLPSSIQLEGRLTSQEWNGELVKGLPVQEKGYQFYFTLYTKKLEHHHHHHHH	soluble
MSLAAVILDYNGVIGLQPTTDQWLRLARTALWPEDDLPAFQNAFWTARTAYDAGHLSDLAYWATVLGHHPGARRLRGLRDADTDMWTSIDDHVIDVLHQAHESGLPLVLLSNAPRHLSDVLDRRPWRRLMTHAFYSARLQVCKPDPAAYQHAMNATGAADPDRVLFVDDRADNCHAARHLGLRTLHYTGHPTDLAAALQPPNEGHHHHHH	soluble
MSLADAPDNLLGAYLRDRREKLDPAALGLPSTRRRTPGLRREEVAQRAHVSTAWYTWMEQGRGGAPSADVLDRLARALLLDDAEREHLFLLGVGHPPEVRYHASGGVTPRLQHVLDAMDASPAIVRTATWDVVAWNAAAAATLTDYATLPPAARNILRLIFVDPRVRDAQPNWDRVARFAVGAFRADIARGGATQAVQAFIDEMRATSAEFDALWRDHDIRSHDEGTKEIRHPHAGRITLEYSAFAVIGRADLSLVIFTPTTAADRASIRSLVAAREQARAAQAPAMEGHHHHHH	soluble
MSLADEMGYVPDRRAQKLRQASSRLLGVVFELQQPFHGDLVEQIYAAATRRGYDVMLSAVAPSRAEKVAVQALMRERCEAAILLGTRFDTDELGALADRVPALVVARASGLPGVGAVRGDDVAGITLAVDHLTELGHRNIAHIDGADAPGGADRRAGFLAAMDRHGLSASATVVTGGTTETEGAEGMHTLLEMPTPPTAVVAFNDRCATGVLDLLVRSGRDVPADISVVGYDDSRLARIPHVQMTTISQDATHMAEAAVDGALAQISGDKAVDLVLAPHLVRRATTGPVAHREGHHHHHH	soluble
MSLADPADISAASRSVVRVVIIESDGDRANLITHGTGFAVTPNLIVTNAHVVEELRRDDTLIAGVVPAEGRNGFPAKLVAYSPGNDLALLRIEGGGSITPITLFPGAPGDGSEVYAVGYPGNVDLAQGLSMADLVTPQAAVKTRGYLSGGRSSRSFDTLLHTAPLGSGNSGGPLLDSCGRVIGVNSFGTVSDNSTDSAFYFAISMRELSAFLRRANVDAHTSGLPCRSIADLDRAEAERAAGEQARLAAQTAAQADAKQRAMDKARRDAELAILSERDNGEGHHHHHH	soluble
MSLAEFFKDSKASLELRNFYMNKDFRDEVSSAANQQSKQDEWAQGFILKYESGYTEGPVGFGLDMLGLLGVKLDSGPGEAGTGLLPGGYNNRAPDDYSELGVTGKVRFSKTELKVGTLLPKNPVLVYNDTRLLPQTFQGGNLQIKEIEGLTLDFGYLDEVNYRNSTHNEEMSLVNANRRNITIKPGAENEANFFMYGGATYQVTKALTATYYYGELDDLYKQHAVNLVHVLPLGKSSLKTDLRYARSTDDGEAHVDNHAFGLLTTYAMGAHKFGLGLQKMQGDTGFAQINGTDPFLVNYIQVNDFGNADERSWQLRYDYDFAALGIPGLTFMTRYVSGDHVDRGPGSDGKEWERDMDIAYVFQSGMLKNLSLKWRNATMRSNFVRDVDENRLIVSYTLPLLEGHHHHHH	not soluble
MSLAIPFKRINLNLILHLDALLSERSVSAAAEKVFVSQPAMSSSLKQLRELFKDPLLIPGKGEYFLSPKAKELQPQLEQVMFFIRNILQPNERFDPFQTKRSFKIALPDYVELILLPSLMAALEKLPHIVIETTIQSMADDPHLFIDENVDLAIGAINENSLSAQLKVEKLYEEEIICFASKNNPLINRPLSLEDYISNKHIAFSFNQERYSHSAEYLYKRKLVRNDMLFVKNILPAIFAVANSDAVISTAPSFLINMFARQFNLGMQPLPFNLEPTPIYLVTHSKSQYDEGVSWLAKLVSSSIKSPSEGHHHHHH	soluble
MSLAIPRQKMPAQDPVERVGNFKEVNLGLTPEQAQQEALRCIQCKDPVCIAGCPVNIKIDQFIKLIAEGDFMGAVRKIKEDNVLPSICGRVCPQEDQCEKVCVIGKKHEPVAIGNLERFVGDYERTSGQKIDPKIAPPTGKKVAVVGSGPAGLSCANDLAQYGHKVVVFEALHELGGVLMYGIPEFRLPKEIVREELDGLRRMGIEFRTDVVVGRTITIDELMEEEGFDAVFIGVGAGLPWFMGIPGENLVGVLAANEFLTRVNLMKAYDFLKSSDTPVFDCKGKNVAVFGGGNTAMDAVRTAKRLGAEHAYIVYRRSEKEMPAREEEIHNAKEEGIEFLLLTTPLEFVGDEKAWLTGAKCQKMELGEPDDSGRRRPVPVEGSEYILPIDMAIISIGNGPNPLIHQTTPDIEVSKRETIVVDVNTMQTSKENVYAGGDIVTGGATVILAMGAGRKAAAAINEKLGGTAKNEGHHHHHH	soluble
MSLAIQLGKDYTMLSTPQPVADPKKVEVIEFFSYHCIHCYDDDPAFNAWSKTLPADVSFRKEQIVWQKSMEGFARMFATFNATGTFDKLHRAAFDAQIKQRVDLSKPEQFTGWIKQQKGVDSAKLLQTYNSFGINAQVARATKITRDYQIQGTPTVIVNGKYVVVTATPERMIQVMNELVAKAREGHHHHHH	soluble
MSLAKITGGYTATGSAADTMNALAVDDNQSSSGYDRDSFGFRTTDVDGNGCDVRDDVLARDLTDITYKYAGSCVVESGTLADPYTAQTIHFVRGRATSAKVQIDHVVALENAWQSGARDWSTAKRHEFGNDPYNLMAVDGPANQEKGSASAAYWMPTNADYRCDYVARQIGVKDKYQLTVTSQEKDAMLAVLHTCPGQAVPADEEGHHHHHH	soluble
MSLALRFITAEEAAEFVHHNDNVGFSGFTPAGNPKVVPAAIAKRAIAAHEKGNPFKIGMFTGASTGARLDGVLAQADAVKFRTPYQSNKDLRNLINNGSTSYFDLHLSTLAQDLRYGFYGKVDVAIIEVADVTEDGKILPTTGVGILPTICRLADRIIVELNDKHPKEIMGMHDLCEPLDPPARRELPVYTPSDRIGKPYVQVDPAKIVGVVRTSEPNDESDFAPLDPVTQAIGDNVAAFLVSEMKAGRIPKDFLPLQSGVGNVANAVLGALGDNPDIPAFNMYTEVIQDAVIALMKKGRIKFASGCSLSVSRSVIQDIYANLDFFKDKILLRPQEYSNNPEIVRRLGVITINTALEADIFGNINSTHVSGTRMMNGIGGSGDFTRNSYVSIFTTPSVMKDGKISSFVPMVAHHDHSEHSVKVIISEWGVADLRGKNPRERAHEIIDKCVHPDYRPLLRQYLELGVKGQTPQNLDCCFAFHQELAKSGDMRNVRWEDYMKEGHHHHHH	soluble
MSLAMRFMLLLMLVGMAHGALANPLRVCVGDVNVWPPFTYWQGSSAQEKAESLTGSATTLVLEALKKQEIEYQLHFMPWARVQQELAQATGRCDLTWDASYRAERAEYSYFSVPLYTIQLGYFTLPENSKDLNLATDSDVLCGVNGFNYQNFALPREPSLTLNSVQQALNMLQKERCDWFVSEIEPIYGGIMLGLYQLDRPIQHHFLGKTKEYHVQVRRSLPNAMPLLNGLNEYILQAQSSGHAQAVFDRFLSITQTEGHHHHHH	soluble
MSLANNKISQTTKKLSQIFNSEKQPAVFFDKNVSTIEENNSLLDGQTDVPVLDPHDLLVEVQAVSVNPVDTKLRQTGVASKIKILGYDAFGIVKNTGKDVTRFHAGDRVYYAGTTQRPGSNEKFQAVDERLVGRAPEKLNKSEIAAMPLTSITAYEILVDQLGLRFQNHAADGKNMLVINGAGGVGSVLLQMAAYLGINLSVTAHSSESIEWLKKYSVDKIYDYENIDETLADQKFDYIVFLYDPALYWDIAIKHIKPYGQLVSIVGTNKPLNMGPLKNIAVQFKWEYMFAKSDFNHNILSQGQALDKIAILLDAGILKTTLNKTFDLINAENLRQAYKLVESGRMQGKVVLNGEGHHHHHH	not soluble
MSLANQVLAVNDDLPIRTHKPVHSGKVRSVYWLTEEDSARLIKEKGYDVAPDAPLAIMVISDRISAFDCIWHGEGGLKGVPGKGAALNAISNHWFKLFKDNGLADSHILDIPHPFVWIVQKAKPVKIEAICRKYITGSMWRAYANGEREFCGIQLPEGLEKDKALPNLLMTPSTKGILKGIPGVPEADDVNITRQNIVDNYEAFNFSSAEDIAQYEKLLKEGFNVISQALEGIDQIFVDTKFEFGYVHDAAGNEKLIYMDEVGTPDSSRIWDAKEYQAGNIVENSKEGFRQFLLNHFPDPDILLNKERMPEREALARDNDLPVESLMDISRTYIGIAEKITGKPITLSENPKAEIIEILSKEYGLIDEGHHHHHH	soluble
MSLANRMPTPGSLAAFLKDRRTRLDPASFGFSGRRRTPGLRREEVAQRANISPTWYTWLEQGRGGAPSADVLNRIAKGLLLTEAEREHLFMLGLGRPPEVRYRGDEGVSPRLQRLIDTLEASPALVKTATWDVVAWNRAAEIVLTDYGTIPAGRRNILRFMFLTPHIRAKQHDWENLARFVVGAFRADAARAGAVSEVTQLVDELCSGSAEFATLWQENDVLAHGDGTKRLKHPELGDIELEYSSFAVDGRPDLNLTVYNPVDSEVADRIRSLAKRLREGHHHHHH	soluble
MSLAPLDLDKYVEIARLCKYLPENDLKRLCDYVCDLLLEESNVQPVSTPVTVCGDIHGQFYDLCELFRTGGQVPDTNYIFMGDFVDRGYYSLETFTYLLALKAKWPDRITLLRGNHESRQITQVYGFYDECQTKYGNANAWRYCTKVFDMLTVAALIDEQILCVHGGLSPDIKTLDQIRTIERNQEIPHKGAFCDLVWSDPEDVDTWAISPRGAGWLFGAKVTNEFVHINNLKLICRAHQLVHEGYKFMFDEKLVTVWSAPNYCYRCGNIASIMVFKDVNTREPKLFRAVPDSERVIPPRTTTPYFLEGHHHHHH	not soluble
MSLAQFTTNPQRFDPYKNFKFRIKWGADYVAGVSKISGLKRTTEVVKHREGGDPSSSRKSPGRTEYEAITMERGVTHDVAFEQWANKVWNYGSGLGKEVSLADFRKDLVIEVYNEAGQAAMRYKVFRCWVSEFQSMSDLDANGNAVLIQHLKLETEGWERDYDLVEPKEGTFTEPAEGHHHHHH	soluble
MSLAQLDKNDPARGVLAAIAANASKIAEYDPRVRADEYDSVHQMRVATRELRSHLQTFEGILGGEDYLNLEKELKVLANILGRARDAEVVEERLSNLINTEVGDSIEEETKKELLEDLGAEYRREHERVVRALDNDRYTDLLQALENLLVDPPLITEVEEPEATEAPESAETTESTDVSEATEEADAEAESVEEATEQEESADAPESADLDALDEEYSPGSQAPVEEPKEPKKVDAALVLLEHLDKAHVKLVKLEKKARSQWDDLSIPMLEREENFHNLRKAAKKLRYSAEAVGKATTVETKKLYKACSGLQSVLGDYQDAITSRNELLRRAQVARRQGRDTFAYGILYQHEQTLSREYLTGYSDAFKSVEKAYAKLAEDTAKRSKKNKRKEGHHHHHH	not soluble
